Experimental data from patent US20140072613A1, “Compositions and Methods for Treating Cutaneous Scarring” (priority 2012, published 2014).

Tests used:
Assay in all cases: biochemical
Format in all cases: biochemical
[1] = molecular target: 266 human kinases (Homo sapiens, UniProt Q04912); conditions: Ron(h); 100 μM
Outline: (§1)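 A filter-capture radiometric assay: phosphorylated cationic substrate binds an anionic membrane and is scintillation-counted, with values referenced to full-activity control.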

[2] = molecular target: T1, 266 human kinases (Homo sapiens, UniProt Q15139); conditions: PKCμ(h); 100 μM
T1 sequence (Q15139 1-912): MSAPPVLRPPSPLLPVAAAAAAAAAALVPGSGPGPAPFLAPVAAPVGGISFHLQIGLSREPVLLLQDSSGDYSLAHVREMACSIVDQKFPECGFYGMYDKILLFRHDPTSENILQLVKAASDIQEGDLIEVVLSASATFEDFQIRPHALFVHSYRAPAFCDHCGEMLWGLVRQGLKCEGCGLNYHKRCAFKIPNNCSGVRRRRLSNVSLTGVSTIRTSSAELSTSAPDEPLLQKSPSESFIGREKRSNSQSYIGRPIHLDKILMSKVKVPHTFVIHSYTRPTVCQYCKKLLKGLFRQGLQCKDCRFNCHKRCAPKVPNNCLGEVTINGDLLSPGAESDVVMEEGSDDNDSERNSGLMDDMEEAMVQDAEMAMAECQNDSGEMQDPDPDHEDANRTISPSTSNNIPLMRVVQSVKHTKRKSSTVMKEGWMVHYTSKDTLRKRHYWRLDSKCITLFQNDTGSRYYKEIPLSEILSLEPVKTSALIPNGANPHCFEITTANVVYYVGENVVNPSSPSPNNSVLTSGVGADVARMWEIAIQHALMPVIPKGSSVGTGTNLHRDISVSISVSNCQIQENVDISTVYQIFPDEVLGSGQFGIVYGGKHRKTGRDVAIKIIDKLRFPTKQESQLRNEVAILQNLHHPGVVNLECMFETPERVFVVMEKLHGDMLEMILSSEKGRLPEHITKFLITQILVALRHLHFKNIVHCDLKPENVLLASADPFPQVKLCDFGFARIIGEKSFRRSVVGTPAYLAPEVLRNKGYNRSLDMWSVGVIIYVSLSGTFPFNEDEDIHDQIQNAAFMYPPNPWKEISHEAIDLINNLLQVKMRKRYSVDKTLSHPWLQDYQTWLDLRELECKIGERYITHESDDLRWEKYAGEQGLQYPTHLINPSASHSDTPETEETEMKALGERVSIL
Outline: as §1

[3] = molecular target: 266 human kinases (Homo sapiens, UniProt Q9Y3S1); conditions: WNK2(h); 100 μM
Chain of 266 human kinases (Homo sapiens, UniProt Q9Y3S1) (Q9Y3S1 whole entry): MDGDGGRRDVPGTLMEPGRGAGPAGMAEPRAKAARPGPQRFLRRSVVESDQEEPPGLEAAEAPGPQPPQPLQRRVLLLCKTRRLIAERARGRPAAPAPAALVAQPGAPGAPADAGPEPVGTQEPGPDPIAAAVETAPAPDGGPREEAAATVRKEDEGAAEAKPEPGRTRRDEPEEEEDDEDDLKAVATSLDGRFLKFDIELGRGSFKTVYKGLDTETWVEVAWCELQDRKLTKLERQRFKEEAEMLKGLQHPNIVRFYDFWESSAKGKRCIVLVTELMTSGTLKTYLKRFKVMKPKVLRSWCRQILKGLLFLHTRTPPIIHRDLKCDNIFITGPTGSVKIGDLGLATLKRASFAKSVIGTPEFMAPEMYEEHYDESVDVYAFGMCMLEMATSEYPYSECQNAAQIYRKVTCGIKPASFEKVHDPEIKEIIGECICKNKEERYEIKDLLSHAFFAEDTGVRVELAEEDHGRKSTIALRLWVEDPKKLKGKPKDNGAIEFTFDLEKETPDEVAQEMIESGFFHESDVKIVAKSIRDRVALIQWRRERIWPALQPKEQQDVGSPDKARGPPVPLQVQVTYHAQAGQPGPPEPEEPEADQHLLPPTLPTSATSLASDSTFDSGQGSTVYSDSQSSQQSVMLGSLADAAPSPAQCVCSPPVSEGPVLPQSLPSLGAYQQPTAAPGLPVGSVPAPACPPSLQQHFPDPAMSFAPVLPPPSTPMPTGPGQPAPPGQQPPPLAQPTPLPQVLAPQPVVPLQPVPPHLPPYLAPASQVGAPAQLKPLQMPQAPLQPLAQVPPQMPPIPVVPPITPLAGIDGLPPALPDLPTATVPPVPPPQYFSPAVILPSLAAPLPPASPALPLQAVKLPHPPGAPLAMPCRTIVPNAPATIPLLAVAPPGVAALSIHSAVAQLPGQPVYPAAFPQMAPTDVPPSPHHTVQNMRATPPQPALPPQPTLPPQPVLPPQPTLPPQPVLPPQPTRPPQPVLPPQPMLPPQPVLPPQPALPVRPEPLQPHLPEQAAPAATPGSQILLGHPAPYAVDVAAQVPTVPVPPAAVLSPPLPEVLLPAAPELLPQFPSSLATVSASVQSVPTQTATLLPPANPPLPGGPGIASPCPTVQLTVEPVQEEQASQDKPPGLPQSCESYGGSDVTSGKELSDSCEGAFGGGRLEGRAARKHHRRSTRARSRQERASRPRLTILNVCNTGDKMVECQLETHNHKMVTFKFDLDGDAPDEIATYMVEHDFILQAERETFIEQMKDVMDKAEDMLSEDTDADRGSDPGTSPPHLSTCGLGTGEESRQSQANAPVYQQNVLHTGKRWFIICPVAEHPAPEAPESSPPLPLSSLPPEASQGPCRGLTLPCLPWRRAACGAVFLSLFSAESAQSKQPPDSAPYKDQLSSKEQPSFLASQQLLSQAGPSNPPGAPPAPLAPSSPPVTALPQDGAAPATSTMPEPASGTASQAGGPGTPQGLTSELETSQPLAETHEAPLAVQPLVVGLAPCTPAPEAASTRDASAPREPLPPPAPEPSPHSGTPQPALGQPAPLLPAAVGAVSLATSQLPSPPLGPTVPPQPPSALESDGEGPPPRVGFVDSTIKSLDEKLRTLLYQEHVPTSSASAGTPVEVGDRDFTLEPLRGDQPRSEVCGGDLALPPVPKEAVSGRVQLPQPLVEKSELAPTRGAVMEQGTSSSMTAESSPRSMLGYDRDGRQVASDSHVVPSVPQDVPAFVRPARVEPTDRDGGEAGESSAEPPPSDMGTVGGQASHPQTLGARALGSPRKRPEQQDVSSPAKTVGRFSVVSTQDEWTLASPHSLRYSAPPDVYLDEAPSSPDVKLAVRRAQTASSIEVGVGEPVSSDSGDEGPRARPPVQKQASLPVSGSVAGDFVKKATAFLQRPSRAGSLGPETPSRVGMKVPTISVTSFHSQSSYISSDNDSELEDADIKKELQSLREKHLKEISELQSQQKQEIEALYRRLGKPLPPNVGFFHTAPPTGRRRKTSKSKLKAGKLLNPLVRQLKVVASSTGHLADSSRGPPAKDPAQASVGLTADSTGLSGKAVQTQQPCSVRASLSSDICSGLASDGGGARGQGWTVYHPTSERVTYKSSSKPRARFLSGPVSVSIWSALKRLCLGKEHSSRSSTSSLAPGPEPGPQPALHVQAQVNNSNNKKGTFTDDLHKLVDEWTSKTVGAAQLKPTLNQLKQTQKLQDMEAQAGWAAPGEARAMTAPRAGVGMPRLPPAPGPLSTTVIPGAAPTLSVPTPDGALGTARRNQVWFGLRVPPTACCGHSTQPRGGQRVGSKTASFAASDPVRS
Outline: as §1

[4] = molecular target: T2, 266 human kinases (Homo sapiens, UniProt P54760); conditions: EphB4(h); 100 μM
T2 sequence (P54760 16-987): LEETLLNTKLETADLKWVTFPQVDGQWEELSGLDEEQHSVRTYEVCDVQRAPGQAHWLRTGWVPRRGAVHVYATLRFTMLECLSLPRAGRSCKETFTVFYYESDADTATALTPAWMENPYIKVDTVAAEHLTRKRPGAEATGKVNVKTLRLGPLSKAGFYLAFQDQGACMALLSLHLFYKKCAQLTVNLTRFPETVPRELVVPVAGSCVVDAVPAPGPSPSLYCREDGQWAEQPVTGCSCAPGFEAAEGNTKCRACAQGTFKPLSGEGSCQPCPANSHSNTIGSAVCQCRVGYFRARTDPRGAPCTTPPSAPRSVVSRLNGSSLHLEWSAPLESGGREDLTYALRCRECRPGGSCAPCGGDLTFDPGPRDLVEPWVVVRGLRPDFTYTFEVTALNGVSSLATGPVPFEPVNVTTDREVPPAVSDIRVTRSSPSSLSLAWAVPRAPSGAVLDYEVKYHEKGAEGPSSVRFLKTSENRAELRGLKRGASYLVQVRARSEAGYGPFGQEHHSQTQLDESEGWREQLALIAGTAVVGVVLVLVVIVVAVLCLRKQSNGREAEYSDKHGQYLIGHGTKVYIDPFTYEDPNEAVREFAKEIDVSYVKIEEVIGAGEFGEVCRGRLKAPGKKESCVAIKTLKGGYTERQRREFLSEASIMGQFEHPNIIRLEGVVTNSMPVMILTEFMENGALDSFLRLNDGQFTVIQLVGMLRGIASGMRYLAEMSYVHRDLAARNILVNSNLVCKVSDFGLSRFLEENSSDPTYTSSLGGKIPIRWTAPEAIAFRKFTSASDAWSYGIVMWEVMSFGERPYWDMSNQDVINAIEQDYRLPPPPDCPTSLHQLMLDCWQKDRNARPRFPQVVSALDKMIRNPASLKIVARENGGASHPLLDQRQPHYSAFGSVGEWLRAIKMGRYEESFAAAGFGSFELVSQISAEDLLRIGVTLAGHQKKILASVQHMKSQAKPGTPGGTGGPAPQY
Outline: as §1

[5] = molecular target: 266 human kinases (Homo sapiens, UniProt O96017, R145W); conditions: CHK2(R145W)(h); 100 μM
Outline: as §1

[6] = molecular target: 266 human kinases (Homo sapiens, UniProt Q05397); conditions: FAK(h); 100 μM
Outline: as §1

[7] = molecular target: 266 human kinases (Homo sapiens, UniProt P08069); conditions: IGF-1R(h), 100 μM
Outline: as §1

[8] = molecular target: 266 human kinases (Homo sapiens, UniProt O15530); conditions: PDK1(h); 100 μM
Chain of 266 human kinases (Homo sapiens, UniProt O15530) (O15530 whole entry): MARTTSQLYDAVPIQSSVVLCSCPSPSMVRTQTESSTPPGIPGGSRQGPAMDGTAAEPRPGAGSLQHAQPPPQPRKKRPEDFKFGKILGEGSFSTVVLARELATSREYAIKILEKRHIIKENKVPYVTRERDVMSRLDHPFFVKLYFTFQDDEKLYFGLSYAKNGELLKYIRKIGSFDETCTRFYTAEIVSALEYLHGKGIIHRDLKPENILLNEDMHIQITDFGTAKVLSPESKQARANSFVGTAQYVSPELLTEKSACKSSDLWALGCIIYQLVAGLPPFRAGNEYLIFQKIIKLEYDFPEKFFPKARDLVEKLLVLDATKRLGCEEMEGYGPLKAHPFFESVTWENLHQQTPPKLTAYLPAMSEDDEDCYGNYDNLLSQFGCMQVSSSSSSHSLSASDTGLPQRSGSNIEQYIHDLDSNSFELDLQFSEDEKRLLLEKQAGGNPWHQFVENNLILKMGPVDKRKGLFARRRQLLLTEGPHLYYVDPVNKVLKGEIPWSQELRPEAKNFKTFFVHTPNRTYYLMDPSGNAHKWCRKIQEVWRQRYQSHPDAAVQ
Outline: as §1

[9] = molecular target: 266 human kinases (Homo sapiens, UniProt Q86V86); conditions: Pim-3(h); 100 μM
Outline: as §1

[10] = molecular target: 266 human kinases (Homo sapiens, UniProt P78362); conditions: SRPK2(h); 100 μM
Outline: as §1

[11] = molecular target: 266 human kinases (Homo sapiens, UniProt P09619); conditions: PDGFRβ(h); 100 μM
Chain of 266 human kinases (Homo sapiens, UniProt P09619) (P09619 33-1106): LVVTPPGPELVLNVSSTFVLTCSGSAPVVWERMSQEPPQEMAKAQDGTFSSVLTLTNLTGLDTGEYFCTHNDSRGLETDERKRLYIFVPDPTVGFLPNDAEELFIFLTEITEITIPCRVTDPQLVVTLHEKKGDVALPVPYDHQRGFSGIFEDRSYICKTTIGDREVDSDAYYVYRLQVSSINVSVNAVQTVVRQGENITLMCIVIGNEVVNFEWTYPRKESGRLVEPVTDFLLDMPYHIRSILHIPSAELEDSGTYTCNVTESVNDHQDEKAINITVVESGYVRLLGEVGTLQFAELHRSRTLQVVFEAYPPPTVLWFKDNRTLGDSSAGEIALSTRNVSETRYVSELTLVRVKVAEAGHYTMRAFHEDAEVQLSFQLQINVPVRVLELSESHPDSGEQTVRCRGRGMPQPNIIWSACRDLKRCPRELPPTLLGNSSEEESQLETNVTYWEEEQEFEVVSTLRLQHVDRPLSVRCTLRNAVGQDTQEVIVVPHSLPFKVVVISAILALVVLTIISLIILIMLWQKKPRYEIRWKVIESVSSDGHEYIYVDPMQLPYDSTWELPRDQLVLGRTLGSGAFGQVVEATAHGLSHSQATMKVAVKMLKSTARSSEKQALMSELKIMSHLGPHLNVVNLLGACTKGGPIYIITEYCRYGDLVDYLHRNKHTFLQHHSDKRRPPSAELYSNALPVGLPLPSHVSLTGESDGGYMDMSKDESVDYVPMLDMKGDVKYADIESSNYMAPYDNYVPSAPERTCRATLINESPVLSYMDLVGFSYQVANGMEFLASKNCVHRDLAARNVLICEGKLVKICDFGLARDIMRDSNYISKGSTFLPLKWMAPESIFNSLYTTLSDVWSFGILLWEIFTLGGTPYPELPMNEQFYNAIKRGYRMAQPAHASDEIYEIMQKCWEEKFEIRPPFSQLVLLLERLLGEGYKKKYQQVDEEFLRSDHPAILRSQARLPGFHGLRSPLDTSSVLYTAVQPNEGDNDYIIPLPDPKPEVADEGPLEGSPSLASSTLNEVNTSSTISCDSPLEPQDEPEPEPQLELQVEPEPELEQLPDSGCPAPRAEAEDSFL
Outline: as §1

[12] = molecular target: 266 human kinases (Homo sapiens, UniProt P10721, D816V); conditions: cKit(D816V)(h); 100 μM
Outline: as §1

[13] = molecular target: 266 human kinases (Homo sapiens, UniProt Q13557); conditions: CaMKIIδ(h); 100 μM
Chain of 266 human kinases (Homo sapiens, UniProt Q13557) (Q13557 whole entry): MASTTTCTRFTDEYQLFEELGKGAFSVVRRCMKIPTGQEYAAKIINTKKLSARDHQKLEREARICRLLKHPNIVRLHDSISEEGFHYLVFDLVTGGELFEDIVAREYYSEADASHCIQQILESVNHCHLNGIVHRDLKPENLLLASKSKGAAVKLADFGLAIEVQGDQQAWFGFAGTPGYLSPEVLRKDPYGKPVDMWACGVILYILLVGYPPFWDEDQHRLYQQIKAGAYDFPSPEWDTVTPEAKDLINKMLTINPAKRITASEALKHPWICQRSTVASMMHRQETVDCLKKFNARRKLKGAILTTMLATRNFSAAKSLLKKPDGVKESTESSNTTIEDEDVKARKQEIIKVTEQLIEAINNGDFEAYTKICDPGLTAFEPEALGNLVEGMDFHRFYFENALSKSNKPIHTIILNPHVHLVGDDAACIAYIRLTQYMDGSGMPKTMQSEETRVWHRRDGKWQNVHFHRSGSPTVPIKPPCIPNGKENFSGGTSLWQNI
Outline: as §1

Sequence | % activity [1] | % activity [2] | % activity [3] | % activity [4] | % activity [5] | % activity [6] | % activity ([7]; activated) | % activity [8] | % activity [9] | % activity [10] | % activity [11] | % activity [12] | % activity [13] | % activity [7]
HRRIKAWLKKIKALARQLGVAA (mammal) [MMI-0500] | 46% | 10% | 8% | 38% | 3% | 94% | 45% | 178% | 37% | 80% | 40% | 30% | 1% | –
YARAAARQARAKALNRQLGVA (mammal) [MMI-0200] | 120% | 73% | 94% | 131% | 81% | 110% | 94% | 143% | 94% | 100% | 137% | 118% | 2% | 49%
